# According to US20210032298:
# T1: Myc-tagged CMTM6 C115S mutant (expressed in HEK293 cells)
# T1 chain: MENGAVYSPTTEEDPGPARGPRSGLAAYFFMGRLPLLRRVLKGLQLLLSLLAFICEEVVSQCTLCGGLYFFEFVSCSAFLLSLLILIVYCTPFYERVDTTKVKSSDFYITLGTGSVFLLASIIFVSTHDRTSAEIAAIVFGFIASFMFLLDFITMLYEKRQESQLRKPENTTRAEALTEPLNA
# T2: Myc-tagged CMTM6 C90S mutant (expressed in HEK293 cells)
# T2 chain: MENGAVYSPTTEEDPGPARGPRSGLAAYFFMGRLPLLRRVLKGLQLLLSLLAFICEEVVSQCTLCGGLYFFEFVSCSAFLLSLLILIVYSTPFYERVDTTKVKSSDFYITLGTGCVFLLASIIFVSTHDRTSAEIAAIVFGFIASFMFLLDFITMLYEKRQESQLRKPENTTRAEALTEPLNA
# T3: Myc-tagged CMTM6 C90S+C115S double mutant (expressed in HEK293 cells)
# T3 chain: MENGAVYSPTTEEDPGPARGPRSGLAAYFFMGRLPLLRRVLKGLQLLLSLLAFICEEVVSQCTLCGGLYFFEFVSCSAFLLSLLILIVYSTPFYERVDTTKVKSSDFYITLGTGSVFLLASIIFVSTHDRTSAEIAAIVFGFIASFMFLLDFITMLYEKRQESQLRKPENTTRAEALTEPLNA
# T4: Myc-tagged CMTM6, wild type (expressed in HEK293 cells)
# T4 chain: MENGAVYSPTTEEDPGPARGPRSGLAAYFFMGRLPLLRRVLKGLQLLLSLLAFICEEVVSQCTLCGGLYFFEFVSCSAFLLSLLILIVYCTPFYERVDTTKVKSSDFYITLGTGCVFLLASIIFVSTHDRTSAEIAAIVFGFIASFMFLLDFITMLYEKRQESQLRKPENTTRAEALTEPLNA
# T5: Niemann-Pick C1 (NPC1; endogenous, in MDA-MB-231 cells), O15118
# T5 chain: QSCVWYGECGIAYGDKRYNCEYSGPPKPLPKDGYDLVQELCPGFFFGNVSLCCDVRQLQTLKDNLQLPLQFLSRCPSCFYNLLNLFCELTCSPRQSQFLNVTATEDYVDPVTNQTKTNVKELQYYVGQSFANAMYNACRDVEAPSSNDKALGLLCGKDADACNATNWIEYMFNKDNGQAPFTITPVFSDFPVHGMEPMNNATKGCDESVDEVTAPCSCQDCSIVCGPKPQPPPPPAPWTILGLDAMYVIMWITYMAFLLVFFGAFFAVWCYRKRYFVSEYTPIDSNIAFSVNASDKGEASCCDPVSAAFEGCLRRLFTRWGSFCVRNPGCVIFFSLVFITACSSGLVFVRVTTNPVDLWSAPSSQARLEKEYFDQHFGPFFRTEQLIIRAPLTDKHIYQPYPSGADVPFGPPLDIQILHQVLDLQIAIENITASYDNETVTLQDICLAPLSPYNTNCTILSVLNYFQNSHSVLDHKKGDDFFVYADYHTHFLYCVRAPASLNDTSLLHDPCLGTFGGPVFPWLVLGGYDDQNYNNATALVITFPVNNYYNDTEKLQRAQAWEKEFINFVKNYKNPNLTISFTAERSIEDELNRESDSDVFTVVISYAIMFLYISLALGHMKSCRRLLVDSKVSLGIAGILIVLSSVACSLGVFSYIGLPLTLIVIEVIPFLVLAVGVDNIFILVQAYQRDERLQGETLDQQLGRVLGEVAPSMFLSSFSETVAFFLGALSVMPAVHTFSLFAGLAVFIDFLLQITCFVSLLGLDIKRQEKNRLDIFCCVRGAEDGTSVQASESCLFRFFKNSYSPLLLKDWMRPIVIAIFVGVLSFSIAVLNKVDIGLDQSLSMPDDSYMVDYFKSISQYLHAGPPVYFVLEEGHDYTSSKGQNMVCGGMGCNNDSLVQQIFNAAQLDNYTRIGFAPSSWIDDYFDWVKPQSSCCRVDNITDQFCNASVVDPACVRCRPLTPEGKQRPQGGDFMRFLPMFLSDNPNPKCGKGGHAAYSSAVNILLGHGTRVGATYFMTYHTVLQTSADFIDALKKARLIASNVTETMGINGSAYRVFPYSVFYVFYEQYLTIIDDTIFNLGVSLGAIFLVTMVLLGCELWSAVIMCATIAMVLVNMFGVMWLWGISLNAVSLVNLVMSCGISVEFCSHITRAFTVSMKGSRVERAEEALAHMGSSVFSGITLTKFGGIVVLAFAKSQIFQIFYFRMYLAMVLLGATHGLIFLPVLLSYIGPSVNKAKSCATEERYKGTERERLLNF
# T6: transmembrane protein 192 (TMEM192), Q8IY95
# T6 chain: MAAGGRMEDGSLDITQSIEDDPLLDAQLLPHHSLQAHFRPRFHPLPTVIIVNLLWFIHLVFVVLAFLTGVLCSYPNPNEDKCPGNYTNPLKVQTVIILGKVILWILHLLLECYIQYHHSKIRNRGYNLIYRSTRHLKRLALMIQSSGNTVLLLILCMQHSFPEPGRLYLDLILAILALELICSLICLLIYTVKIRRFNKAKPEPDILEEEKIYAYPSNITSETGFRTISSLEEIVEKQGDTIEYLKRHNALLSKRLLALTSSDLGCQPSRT
# B1: FLAG-tagged DHHC3 (over-expressed in HEK293 cells) (protein)
# chain: MMLIPTHHFRNIERKPEYLQPEKCVPPPYPGPVGTMWFIRDGCGIACAIVTWFLVLYAEFVVLFVMLIPSRDYVYSIINGIVFNLLAFLALASHCRAMLTDPGAVPKGNATKEFIESLQLKPGQVVYKCPKCCSIKPDRAHHCSVCKRCIRKMDHHCPWVNNCVGENNQKYFVLFTMYIALISLHALIMVGFHFLHCFEEDWTKCSSFSPPTTVILLILLCFEGLLFLIFTSVMFGTQVHSICTDETGIEQLKKEERRWAKKTKWMNMKAVFGHPFSLGWASPFATPDQGKADPYQYVV
# B2: DHHC3 (protein acyltransferase; endogenous, in MDA-MB-231 cells) (protein)
# chain: MMLIPTHHFRNIERKPEYLQPEKCVPPPYPGPVGTMWFIRDGCGIACAIVTWFLVLYAEFVVLFVMLIPSRDYVYSIINGIVFNLLAFLALASHCRAMLTDPGAVPKGNATKEFIESLQLKPGQVVYKCPKCCSIKPDRAHHCSVCKRCIRKMDHHCPWVNNCVGENNQKYFVLFTMYIALISLHALIMVGFHFLHCFEEDWTKCSSFSPPTTVILLILLCFEGLLFLIFTSVMFGTQVHSICTDETGIEQLKKEERRWAKKTKWMNMKAVFGHPFSLGWASPFATPDQGKADPYQYVV
# Assays:
# [1] = target: T1, Myc-tagged CMTM6 C115S mutant …
# [2] = target: T2, Myc-tagged CMTM6 C90S mutant (expressed …)
# [3] = target: T3, Myc-tagged CMTM6 C90S+C115S double …
# [4] = target: T4, Myc-tagged CMTM6, wild type (expressed …)
# [5] = target: T5, Niemann-Pick C1 (NPC1; endogenous, in …)
# [6] = target: T6, transmembrane protein 192 (TMEM192), …
Protein,incorporation of 3[H]-palmitate into immunoprecipitated Myc-CMTM6 (HEK293 over-expression) [1],incorporation of 3[H]-palmitate into immunoprecipitated Myc-CMTM6 (HEK293 over-expression) [2],incorporation of 3[H]-palmitate into immunoprecipitated Myc-CMTM6 (HEK293 over-expression) [3],incorporation of 3[H]-palmitate into immunoprecipitated Myc-CMTM6 (HEK293 over-expression) [4],palmitoylation of the substrate after DHHC3 ablation [5],palmitoylation of the substrate after DHHC3 ablation [6]
B1,a C115 mutation did not diminish incorporation of 3[H]-palmitate,mutation of C90 (C→S) caused palmitoylation to be diminished by ˜50%,"both mutations together (C90S+C115S) did not diminish palmitoylation (FIG. 23A, lane 6) more than C90S alone","CMTM6 incorporates 3[H]-palmitate when DHHC3 is present (FIG. 23A, lane 3), but not when DHHC3 is absent (FIG. 23A, lane 2)",–,–
B2,–,–,–,–,"4/4 putative DHHC3 substrates (ERGIC3, CMTM6, NPC1, transmembrane protein 192 (TMEM192)) lose substantial palmitoylation when DHHC3 is ablated","4/4 putative DHHC3 substrates (ERGIC3, CMTM6, NPC1, transmembrane protein 192 (TMEM192)) lose substantial palmitoylation when DHHC3 is ablated"
